The values below come from patent US20050032689A1, “Methods for treatment or diagnosis of disease or disorders associated with an APB domain” (New York University, priority 1994, published 2005).

The target of the test is T1, EGF receptor (Homo sapiens, UniProt P00533).
T1 construct: expressed in transfected cells; host or cells: HER14 (NIH 3T3 cells expressing human EGF receptor)
Briefly: Binding of GST fusion proteins on glutathione-agarose beads to EGF receptor from HER14 cell lysates, immunoblot. Here is the method: FIGS. 2A and 2B. Association of GST-Shc 1-209 with the EGF Receptor (EGFR). A, HER14 lysates from either EGF-stimulated (+) or unstimulated (−) cells (5×10^6 cells) were incubated with 3 μg of GST fusion protein immobilized on glutathione-agarose beads. The bound proteins were washed, subjected to SDS-PAGE, transferred to nitrocellulose and immunoblotted with anti-EGF receptor antibody, anti-C (anti-EGFR). HER14 lysate (4×10^5 cells) was run directly on the gel in lanes 5 and 6. B, unstimulated HER14 lysates (5×10^6 cells) were immunoprecipitated with anti-EGFR antibody (mAb 108). The immobilized receptor was then phosphorylated (+) by the addition of 5 mM MnCl2 and 50 μM ATP or left unphosphorylated (−) by adding MnCl2 alone. Bacterial lysates containing 5 μg of GST, GST-Grb7, and GST-Shc 1-209 were then diluted in 1 ml of 1% Triton X-100 lysis buffer, added to the immobilized receptor and incubated at 4° C. for 90 min. The bound proteins were washed and together with 40 μl of the post-binding supernatant separated by SDS-PAGE and transferred to nitrocellulose. The bound fractions (left panel) and supernatants (right panel) were immunoblotted with anti-GST. FIGS. 4A, 4B, 4C and 4D. Binding of Shc fragments to growth factor receptors. A, schematic diagram illustrating the Shc fragments used in binding studies. Full length murine p52^shc is indicated in (i) while (ii)-(vi) were generated as GST fusion proteins for use in receptor binding studies. B, association of various GST fusion proteins with activated EGF receptor (EGFR). Binding was performed as in FIG. 2A with the exception that all lysates were stimulated with EGF. All studies used 3 μg of fusion proteins except for the Shc SH2 where 10 μg was used. Immunoblotting was performed with anti-phosphotyrosine. C, binding of Shc fusion proteins to NIH 3T3 cells expressing a HER1/2 chimera. This chimera consists of the EGF receptor extracellular binding domain and the intracellular region of HER2/neu. After stimulation of these cells with EGF (200 ng/ml) lysates were prepared and binding as well as blotting studies were performed as in B using anti-phosphotyrosine antibody. D, binding of Shc 1-209 to TrkA. Beads containing 10 μg of GST fusion proteins Shc 1-209, phospholipase C-γ (PLC-γ) SH2 (contains both N and C SH2 domains), or GST alone were added to lysates from 2×10^7 PC12 cells stimulated with 50 ng/ml nerve growth factor (lanes 1, 2, and 4). The binding of the same amount of lysate to 2 μg of anti-TrkA antibody is shown as a positive control and to indicate the position of TrkA on the blot (lane 3). Otherwise, the binding and blotting were performed as in B using anti-phosphotyrosine antibody. […]
(In general: In western blotting, separated proteins are transferred to a membrane and probed.)

B1: Shc 1-209: Shc amino terminus, first 209 amino acids of murine p52Shc, generated as a GST fusion protein (protein, UniProt P98083 1-209, looked up, fragment)
chain: MDLLPPKPKYNPLRNESLSSLEEGASGSTPPEELPSPSASSLGPILPPLPGDDSPTTLCSFFPRMSNLKLANPAGGRLGPKGEPGKAAEDGEGSAGAALRDSGLLPLLQDMNKLSGGGGRRTRVEGGQLGGEEWTRHGSFVNKPTRGWLHPNDKVMGPGVSYLVRYMGCVEVLQSMRALDFNTRTQVTREAISLVCEAVPGAKGATRRR
modifications: GST fusion
notes: Shc amino terminus, first 209 amino acids of murine p52Shc, generated as a GST fusion protein
As to B1, the “EGF receptor binding compared with the Shc SH2 domain” value (3 μg fusion protein vs 10 μg Shc SH2, EGF-stimulated lysates) is on record as “comparable or superior”. In addition, the “binding to EGF receptor” value (GST fusion protein, lysates of EGF-stimulated or unstimulated cells) was “bound only to the activated tyrosine-phosphorylated receptor”.
